Test results from patent US20240254196A1 (MEDYTOX, published 2024).

What was measured:
human IL-1β [1] = molecular target: T1, human IL-1β (human, UniProt P01584 117-269); experiment: ELISA, human IL-1β coated at 30 ng/well, detection with anti-human IgG Fc-HRP, OD 450 nm
T1 construct: Bought protein; also called hIL-1β
Experimental: An analysis of binding of three types of IL-1 specific Fc fusion proteins (rilonacept, IL1T, PET101) to human IL-1β was performed by using an ELISA method. For comparison of binding capacity, human IL-1β antibody canakinumab was used as a control. […] Next day, the plate was washed with Phosphate Buffered Saline with Tween-20 (PBST; TEKNOVA, P1192). All washing procedures in this analysis were performed by using an AquaMax 2000 plate washer (Molecular Devices, 0310-5363). IL1T, PET101, rilonacept, and canakinumab were diluted in PBST containing 1% (w/v) skim milk to an appropriate concentration and treated in each well, binding was induced at room temperature for 1 hour, and plate was washed 3 times. Thereafter, peroxidase-bound anti-human IgG Fc goat antibodies (Invitrogen 31413) were diluted (1:10,000) in PBST containing 1% (w/v) skim milk to induce binding, and washed 3 times with PBST, and then color reaction was induced by treating 3,3′,5,5′-tetramethylbenzidine (TMB) substrate solution (Thermo Fisher Scientific, 34028) in the dark at room temperature. Thereafter, the reaction was terminated by treatment with 1N of sulfuric acid (DUKSAN, 255), and absorbance was measured at 450 nm by using a SpctraMax i3 multimode plate reader (Molecular Devices, 10192-220).

[2] = molecular target: T2, rhesus monkey (Rhesus macaque) IL-1β (rhesus monkey (Rhesus macaque), UniProt P48090 117-269); experiment: SPR, Biacore T200; binder captured by anti-human Fc, cytokine injected; 1:1 Langmuir
T2 construct: Bought protein; also called Monkey IL-1β; monkey IL-1β
Experimental: (§1) In order to analyze binding capacity of PET101 to IL-1α and IL-1β more quantitatively, surface plasmon resonance analysis was performed by using Biacore T200 (GE healthcare). A Series S CM5 Sensor Chip (GE healthcare, BR100530) was used to measure the binding constant, and the anti-human Fc antibodies included in the Human Antibody Capture Kit (GE healthcare, BR100839) were immobilized to the sensor chip according to the manufacturer's manual by using an amine coupling kit (GE healthcare, BR100050). Flow cell 1 of the CM5 sensor, to which anti-human Fc antibodies were immobilized, was used as a blank space, and in Flow cells 2, 3, and 4, 100 nM of PET101 (18 μg/ml), 100 nM of rilonacept (25 μg/ml), and 100 nM of canakinumab (15 μg/ml) were respectively loaded for 1 minute at a flow rate of 10 μl/min. After preparation of all the flow cells, 0.25 nM, 0.5 nM, 1 nM, 2 nM, 4 nM, and 8 nM of human IL-1α (R&D systems, 200-LA), human IL-1β (R&D systems, 201-LB), and mouse IL-1α (R&D systems, 400-ML), mouse IL-1β (R&D systems, 401-ML), and rhesus monkey (Rhesus macaque) IL-1β (R&D systems, 1318-RL) antigens were injected at a flow rate of 30 μl/min, to carry out a binding reaction for 4 minutes, subsequently, only 1×HBS-EP+ buffer (GE healthcare, BR100669) was injected at a flow rate of 30 μl/min to perform a dissociation reaction for 10 minutes. Affinity was calculated by performing normalization and subtraction in each acquired sensorgram comparing with the blank cell. The BIAevaluation software (GE healthcare) was used for affinity calculation, and the association rate constant and dissociation rate constant were calculated through the 1:1 Langmuir model analysis. An equilibrium dissociation constant (KD) is a value obtained by dividing the dissociation rate constant (Kd) by the association rate constant (Kₐ).

human IL-1β [3] = molecular target: T1, human IL-1β; experiment: as above
Experimental: as §1

EC50 (human IL-1β [1]): 0.0882 nM | Kd [2]: 2850 nM | koff [2]: 0.0181 s⁻¹ | kon [2]: 6350 M⁻¹ s⁻¹ | Kd (human IL-1β [3]): 0.0684 nM | koff (human IL-1β [3]): 5.21e-05 s⁻¹ | kon (human IL-1β [3]): 762000 M⁻¹ s⁻¹
B1: canakinumab (antibody)
chain 1: not shown
chain 2: EIVLTQSPDFQSVTPKEKVTITCRASQSIGSSLHWYQQKPDQSPKLLIKYASQSFSGVPSRFSGSGSGTDFTLTINSLEAEDAAAYYCHQSSSLPFTFGPGTKVDIKRTVAAPSVFIFPPSDEQLKSGTASVVCLLNNFYPREAKVQWKVDNALQSGNSQESVTEQDSKDSTYSLSSTLTLSKADYEKHKVYACEVTHQGLSSPVTKSFNRGEC
